Experimental data: patent US20240059799A1 (Pfizer, published 2024)

T1: recombinant human TL1A (human, UniProt O95150 71-251)
T1 construct: homotrimer; biotinylated for SPR capture; the ELISA paragraphs say only 'recombinant TL1A'; also called TNFSF15
T1 chain: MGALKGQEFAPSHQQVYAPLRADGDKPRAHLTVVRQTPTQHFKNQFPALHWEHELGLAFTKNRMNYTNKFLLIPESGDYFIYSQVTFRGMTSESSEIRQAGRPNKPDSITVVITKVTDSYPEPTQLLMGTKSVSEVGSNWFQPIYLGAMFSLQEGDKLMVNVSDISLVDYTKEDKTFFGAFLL


Target: T1, recombinant human TL1A
Assay: competition ELISA vs bio-TL1A-0002
Experimental: For this competition ELISA assay procedure, 96-well high binding plates (Corning, product number 3590) were coated with 1 μg/mL recombinant TL1A in 100 μL/well in Phospate Buffered Saline (PBS) overnight at 4° C. Plates were then blocked in PBS+0.02% casein solution and washed with PBS+0.05% Tween-20 following standard ELISA protocol. […] Plates were washed with PBS+0.05% Tween-20 following standard ELISA protocol, and Streptavidin-HRP (Southern Biotech, product number 7100-05) diluted to 1:10,000 in assay buffer was added to plates and incubated for 25-30 minutes at room temperature. Next, the plates were washed with PBS+0.05% Tween-20 following standard ELISA protocol, and then TMB substrate (BioFX Laboratories, catalog number TMBW-0100-01) was added to plates. Reactions were stopped after approximately 5 minutes by adding 0.18 M ortho-phosphoric acid to each well and absorbance was read at 450 nm.

Row | Binder | Bioactivity relative to TL1A-0002 [fold] | IC50 [nM]
1 | TL1A-0028 (antibody, IgG1, V domains shown, IgG1/kappa variant of TL1A-0002) VH: QVQLVQSGAEVKKPGASVKVSCKASGYDFTYYGISWVRQAPGQGLEWMGWISTYNGNTHYARMLQGRVTMTTDTSTRTAYMELRSLRSDDTAVYYCARENYWGSGAYRGGMDVWGQGTTVTVSS VL: EIVLTQSPATLSLSPGERATLSCRASQSVSSYLAWYQQKPGQAPRLLIYDASNRATGIPARFSGSGSGTDFTLTISSLEPEDFAVYYCQQRSNWPWTFGQGTKVEIKR | 1.2 | 5.4
2 | TL1A-0067 (antibody, IgG1, V domains shown, IgG1/kappa variant of TL1A-0002) VH: QVQLVQSGAEVKKPGASVKVSCKASGYDFTFYGISWVRQAPGQGLEWMGWISTYNGNTHYARMLQGRVTMTTDTSTRTAYMELRSLRSDDTAVYYCARENYYGSGAYRGGMDVWGQGTTVTVSS VL: EIVLTQSPATLSLSPGERATLSCRASQSVSSYLAWYQQKPGQAPRLLIYDASNRATGIPARFSGSGSGTDFTLTISSLEPEDFAVYYCQQRSNWPWTFGQGTKVEIKR | 1.1 | 5.1
3 | TL1A-0031 (antibody, IgG1, V domains shown, IgG1/kappa variant of TL1A-0002) VH: QVQLVQSGAEVKKPGASVKVSCKASGYDFTYYGISWVRQAPGQGLEWMGWISTYNGNTHYARMLQGRVTMTTDTSTRTAYMELRSLRSDDTAVYYCARENYYGSGDYRGGMDVWGQGTTVTVSS VL: EIVLTQSPATLSLSPGERATLSCRASQSVSSYLAWYQQKPGQAPRLLIYDASNRATGIPARFSGSGSGTDFTLTISSLEPEDFAVYYCQQRSNWPWTFGQGTKVEIKR | 1.6 | 7.4
4 | TL1A-0079 (antibody, IgG1, V domains shown, IgG1/kappa variant of TL1A-0002) VH: QVQLVQSGAEVKKPGASVKVSCKASGYDFTYYGISWVRQAPGQGLEWMGWISTYQGNTHYARMLQGRVTMTTDTSTRTAYMELRSLRSDDTAVYYCARENYYGSGAYRGGMDVWGQGTTVTVSS VL: EIVLTQSPATLSLSPGERATLSCRASQSVSSYLAWYQQKPGQAPRLLIYDASNRATGIPARFSGSGSGTDFTLTISSLEPEDFAVYYCQQRSNWPWTFGQGTKVEIKR | 1.3 | 5.8
5 | TL1A-0029 (antibody, IgG1, V domains shown, IgG1/kappa variant of TL1A-0002) VH: QVQLVQSGAEVKKPGASVKVSCKASGYDFTYYGISWVRQAPGQGLEWMGWISTYNGNTHYARMLQGRVTMTTDTSTRTAYMELRSLRSDDTAVYYCARENLYGSGAYRGGMDVWGQGTTVTVSS VL: EIVLTQSPATLSLSPGERATLSCRASQSVSSYLAWYQQKPGQAPRLLIYDASNRATGIPARFSGSGSGTDFTLTISSLEPEDFAVYYCQQRSNWPWTFGQGTKVEIKR | 1.7 | 7.8
6 | TL1A-0076 (antibody, IgG1, V domains shown, IgG1/kappa variant of TL1A-0002) VH: QVQLVQSGAEVKKPGASVKVSCKASGYDFTYYGISWVRQAPGQGLEWMGWISTYNDNTHYAPSLQGRVTMTTDTSTRTAYMELRSLRSDDTAVYYCARENYYGSGAYRGGMDVWGQGTTVTVSS VL: EIVLTQSPATLSLSPGERATLSCRASQSVSSYLAWYQQKPGQAPRLLIYDASNRATGIPARFSGSGSGTDFTLTISSLEPEDFAVYYCQQRSNWPWTFGQGTKVEIKR | 1.2 | 5.4
7 | TL1A-0030 (antibody, IgG1, V domains shown, IgG1/kappa variant of TL1A-0002) VH: QVQLVQSGAEVKKPGASVKVSCKASGYDFTYYGISWVRQAPGQGLEWMGWISTYNGNTHYARMLQGRVTMTTDTSTRTAYMELRSLRSDDTAVYYCARENYYGSGEYRGGMDVWGQGTTVTVSS VL: EIVLTQSPATLSLSPGERATLSCRASQSVSSYLAWYQQKPGQAPRLLIYDASNRATGIPARFSGSGSGTDFTLTISSLEPEDFAVYYCQQRSNWPWTFGQGTKVEIKR | 1.4 | 6.1
8 | TL1A-0038 (antibody, IgG1, V domains shown, IgG1/kappa variant of TL1A-0002) VH: QVQLVQSGAEVKKPGASVKVSCKASGYDFTYYGISWVRQAPGQGLEWMGWISTYNGNTHYARMLQGRVTMTTDTSTRTAYMELRSLRSDDTAVYYCARENYYGSGDFRGGMDVWGQGTTVTVSS VL: EIVLTQSPATLSLSPGERATLSCRASQSVSSYLAWYQQKPGQAPRLLIYDASNRATGIPARFSGSGSGTDFTLTISSLEPEDFAVYYCQQRSNWPWTFGQGTKVEIKR | 1.6 | 7.2

The remaining lines, values ahead:

Row | Bioactivity relative to TL1A-0002 [fold] | IC50 [nM] | Binder
9 | 1 | 4.7 | TL1A-0040 (antibody, IgG1, V domains shown, IgG1/kappa variant of TL1A-0002) VH: QVQLVQSGAEVKKPGASVKVSCKASGYDFTYYGISWVRQAPGQGLEWMGWISTYNGNTHYARMLQGRVTMTTDTSTRTAYMELRSLRSDDTAVYYCARENYYGSGDHRGGMDVWGQGTTVTVSS VL: EIVLTQSPATLSLSPGERATLSCRASQSVSSYLAWYQQKPGQAPRLLIYDASNRATGIPARFSGSGSGTDFTLTISSLEPEDFAVYYCQQRSNWPWTFGQGTKVEIKR
10 | 1 | 4.6 | TL1A-0061 (antibody, IgG1, V domains shown, IgG1/kappa variant of TL1A-0002) VH: QVQLVQSGAEVKKPGASVKVSCKASGFDFTYYGISWVRQAPGQGLEWMGWISTYNGNTHYARMLQGRVTMTTDTSTRTAYMELRSLRSDDTAVYYCARENYYGSGAYRGGMDVWGQGTTVTVSS VL: EIVLTQSPATLSLSPGERATLSCRASQSVSSYLAWYQQKPGQAPRLLIYDASNRATGIPARFSGSGSGTDFTLTISSLEPEDFAVYYCQQRSNWPWTFGQGTKVEIKR
11 | 1.1 | 5 | TL1A-0073 (antibody, IgG1, V domains shown, IgG1/kappa variant of TL1A-0002) VH: QVQLVQSGAEVKKPGASVKVSCKASGYDFTYYGISWVRQAPGQGLEWMGWISTYNTNTHYAQKLQGRVTMTTDTSTRTAYMELRSLRSDDTAVYYCARENYYGSGAYRGGMDVWGQGTTVTVSS VL: EIVLTQSPATLSLSPGERATLSCRASQSVSSYLAWYQQKPGQAPRLLIYDASNRATGIPARFSGSGSGTDFTLTISSLEPEDFAVYYCQQRSNWPWTFGQGTKVEIKR
12 | 0.8 | 3.6 | TL1A-0033 (antibody, IgG1, V domains shown, IgG1/kappa variant of TL1A-0002) VH: QVQLVQSGAEVKKPGASVKVSCKASGYDFTYYGISWVRQAPGQGLEWMGWISTYNGNTHYARMLQGRVTMTTDTSTRTAYMELRSLRSDDTAVYYCARENYYGSGAFRGGMDVWGQGTTVTVSS VL: EIVLTQSPATLSLSPGERATLSCRASQSVSSYLAWYQQKPGQAPRLLIYDASNRATGIPARFSGSGSGTDFTLTISSLEPEDFAVYYCQQRSNWPWTFGQGTKVEIKR
13 | 0.9 | 4.1 | TL1A-0069 (antibody, IgG1, V domains shown, IgG1/kappa variant of TL1A-0002) VH: QVQLVQSGAEVKKPGASVKVSCKASGYDFTYHGISWVRQAPGQGLEWMGWISTYNGNTHYARMLQGRVTMTTDTSTRTAYMELRSLRSDDTAVYYCARENYYGSGAYRGGMDVWGQGTTVTVSS VL: EIVLTQSPATLSLSPGERATLSCRASQSVSSYLAWYQQKPGQAPRLLIYDASNRATGIPARFSGSGSGTDFTLTISSLEPEDFAVYYCQQRSNWPWTFGQGTKVEIKR
14 | 0.9 | 4 | TL1A-0062 (antibody, IgG1, V domains shown, IgG1/kappa variant of TL1A-0002) VH: QVQLVQSGAEVKKPGASVKVSCKASGYDYTYYGISWVRQAPGQGLEWMGWISTYNGNTHYARMLQGRVTMTTDTSTRTAYMELRSLRSDDTAVYYCARENYYGSGAYRGGMDVWGQGTTVTVSS VL: EIVLTQSPATLSLSPGERATLSCRASQSVSSYLAWYQQKPGQAPRLLIYDASNRATGIPARFSGSGSGTDFTLTISSLEPEDFAVYYCQQRSNWPWTFGQGTKVEIKR
15 | 0.9 | 4.1 | TL1A-0063 (antibody, IgG1, V domains shown, IgG1/kappa variant of TL1A-0002) VH: QVQLVQSGAEVKKPGASVKVSCKASGYDFSYYGISWVRQAPGQGLEWMGWISTYNGNTHYARMLQGRVTMTTDTSTRTAYMELRSLRSDDTAVYYCARENYYGSGAYRGGMDVWGQGTTVTVSS VL: EIVLTQSPATLSLSPGERATLSCRASQSVSSYLAWYQQKPGQAPRLLIYDASNRATGIPARFSGSGSGTDFTLTISSLEPEDFAVYYCQQRSNWPWTFGQGTKVEIKR
16 | 0.9 | 3.9 | TL1A-0071 (antibody, IgG1, V domains shown, IgG1/kappa variant of TL1A-0002) VH: QVQLVQSGAEVKKPGASVKVSCKASGYDFTYYGVSWVRQAPGQGLEWMGWISTYNGNTHYARMLQGRVTMTTDTSTRTAYMELRSLRSDDTAVYYCARENYYGSGAYRGGMDVWGQGTTVTVSS VL: EIVLTQSPATLSLSPGERATLSCRASQSVSSYLAWYQQKPGQAPRLLIYDASNRATGIPARFSGSGSGTDFTLTISSLEPEDFAVYYCQQRSNWPWTFGQGTKVEIKR
17 | 1 | 4.5 | TL1A-0074 (antibody, IgG1, V domains shown, IgG1/kappa variant of TL1A-0002) VH: QVQLVQSGAEVKKPGASVKVSCKASGYDFTYYGISWVRQAPGQGLEWMGWISTYNTNTHYAPSLQGRVTMTTDTSTRTAYMELRSLRSDDTAVYYCARENYYGSGAYRGGMDVWGQGTTVTVSS VL: EIVLTQSPATLSLSPGERATLSCRASQSVSSYLAWYQQKPGQAPRLLIYDASNRATGIPARFSGSGSGTDFTLTISSLEPEDFAVYYCQQRSNWPWTFGQGTKVEIKR
18 | 1 | 4.6 | TL1A-0068 (antibody, IgG1, V domains shown, IgG1/kappa variant of TL1A-0002) VH: QVQLVQSGAEVKKPGASVKVSCKASGYDFTKYGISWVRQAPGQGLEWMGWISTYNGNTHYARMLQGRVTMTTDTSTRTAYMELRSLRSDDTAVYYCARENYYGSGAYRGGMDVWGQGTTVTVSS VL: EIVLTQSPATLSLSPGERATLSCRASQSVSSYLAWYQQKPGQAPRLLIYDASNRATGIPARFSGSGSGTDFTLTISSLEPEDFAVYYCQQRSNWPWTFGQGTKVEIKR
